Data reported in the nanobody polyreactivity screen of Harvey et al. (2022).

Test: yeast display, Sf9 membrane polyspecificity reagent, FACS + sequencing; frameworks hold sequencing errors
How it was run: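 In a synthetic yeast display library (Saccharomyces cerevisiae BJ5465), nanobody expression was induced with galactose for 36–48 hours. FACS gates were set low and high (top ~1%) using anti-HA fluorescence for expression and streptavidin fluorescence for binding of the Sf9 membrane reagent. Each polyreactivity label is drawn from the gate of origin.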

Sequence	polyreactivity (PSR sort gate)
QVQLVESGGGLVQAGGSLRLSCAASGYTFDAYAMGWYRQAPGKERELVAAITTNGGSTYYADSVKGRFTISRDNAKNTVFLQMNSLIPEDTAVFYCKAEYWYEGRYPYDYWGQGTQVTVSS	low polyreactivity
QVQLVESGGGLVQAGGSLRLSCAASGYTFDYYAMGRYRQAPGNERELVAAITNSGGSTYYADSVKGRFTISRDNAKKTVYLQMNSLKPEDPAVYYCAALYYVKPGQRYDYWGQGTQVTVSS	high polyreactivity
QVQLVESGGGLVQAGGSLRLSCAASGYTFFEYTMGWYRQAPGKVREFVAAISWSGGITYYADSVKGRFTISRDNAKNTVYLQMNSLKPEDTAVYYCNADIYSPTPIDYNYWGQGTQVTVSS	low polyreactivity
QVQLVESGGGLVQAGGSLRLSCAASGYTFGGYAMGWYRQAPGKERELVAAISGSGVRTYYADSVKGRFTISRDNAKNTVYLQMNSLKPEDTAVYYCAKRVRYPGDRYYYWGQGTQVTVSS	high polyreactivity
QVQLVESGGGLVQAGGSLRLSCAASGYTFGHYAMGWYRQAPGKERELVAVITSGGSTNYADSVKGRFTISRDNAKNTVYLQMNSLKPEDTAVYYCAADLYFYYVWIRDYWGQGTQVTVSS	low polyreactivity
QVQLVESGGGLVQAGGSLRLSCAASGYTFGIYAMGWYRQAPGKAREFVAAIRWSDTSTSYADSVKWRFTISRDNAKNTVYLQMNSLKPEDTAVYNCAADTFYLYDYWGQGTQVTVSS	low polyreactivity
QVQLVESGGGLVQAGGSLRLSCAASGYTFGLYTMGWYRQAPGKEREFVATIDWSDGGTHYADSVKGRFTISRDNAKNTVYLQMNSLKPEDTAVYYCNADWYAYPYGYWGQGTQVTVSS	low polyreactivity
QVQLVESGGGLVQAGGSLRLSCAASGYTFGTYDKGWYRQAPGKERELVAAISIGGSTNYADSVKGRFTISRDNAKNTVYLQMNSLKPEDTAVYYCAAEVNVGTLLLSVIVEDGDYWGQGTQVTVSS	low polyreactivity
QVQLVESGGGLVQAGGSLRLSCAASGYTFGTYTMGWYRMARWKERELVAGIDSGGTTNYADSVKGRFTISRDNATNTVYLQMHSLKPEHTAVYYSTAYHLLIVDYYLGLYYYRGNYYWGQGTQVTVSS	low polyreactivity
QVQLVESGGGLVQAGGSLRLSCAASGYTFGTYTMGWYRQAPGKERELVAGIDSGGTTNYADSVKGRFTISRDNAKNTVYLKMNRVKPEDTAVYYCTAYHLLIVDYYLGMYYYGGNYYWGQGNQVTVSS	low polyreactivity
QVQLVESGGGLVQAGGSLRLSCAASGYTFKSYVMGWYRQAPGKERELVAAITSIGGSTYYADSVKGRFTISRDNAKNTVYLQMNRLKPEDTAVYYCAARSFRFYPRMHDWGQGTQVTVSS	high polyreactivity
QVQLVESGGGLVQAGGSLRLSCAASGYTFKTYAMGWYRQAPVKERELVAAISGSGGSTYYADSVKGRFTISRDNAKNTVYLQMNSLKPEDTAVYYCNASPTTTPNFWRYDYWGQGTQVTVSS	high polyreactivity
QVQLVESGGGLVQAGGSLRLSCAASGYTFKTYPMGSYRQAPGKERELVAAISGSGGSTYYADSVKVRFTISRDNAKNTVYLQMNSLNPEDTAVYYCNASPTTTPNFWRYDYWGQGTQVTVSS	high polyreactivity
QVQLVESGGGLVQAGGSLRLSCAASGYTFLGYAMGWSRQAPGKERELVAAIRRSGGRTYYADSVKGRFTISRDNAKNTVYLQMNSLKPEDTAVYYCAKGYVGEYDYWGQGTQVTVSS	high polyreactivity
QVQLVESGGGLVQAGGSLRLSCAASGYTFLHYAMGWYRQAPGKERELVAAISGSGGRTYYADSVKGRFTISRDNAKNTVYLQMNSLKPEDTAVYYCAAPYSSRNYYYWGQGTQVTVSS	high polyreactivity
QVQLVESGGGLVQAGGSLRLSCAASGYTFNGYAMGWYRQAPGKERELVAAISWSGGSTYYADSVKGRFTISRDNAKNTFYLQMNSLKPEDTAVYYCARRGPSGVYNDGGYGLDDDYWGQGTQVTVSS	low polyreactivity
QVQLVESGGGLVQAGGSLRLSCAASGYTFPQYAMGWYRQAPGKERELVAAITRRGGSTYYADSVKGRFTISRDNAKNTVYLQMNSLKPEDSAVYNCAADSYPYSHGGDYWGQGTQVTVSS	high polyreactivity
QVQLVESGGGLVQAGGSLRLSCAASGYTFPQYAMRWYRQAPGKERELVAAITRRGGSTYYADSVKGRFTISRDNAKNTVYLQMNSLNPEDTAVYYGSARYYWGQGTQVTVSS	high polyreactivity
QVQLVESGGGLVQAGGSLRLSCAASGYTFPSNAMGWYRQAPGKERDWVAAISSGGRTNYADSVKGRFTISRDNAKNTVYLQMNSLKPEDTAVYYCNADGGPGYPRAYDYWGQGTQVTVSS	low polyreactivity
QVQLVESGGGLVQAGGSLRLSCAASGYTFQRYAMGRYRQAPGKERELVATISKRGGSTYYADSVKGRFTISRDNAKNTVYLQMNSLKPDDTAVYYCATATPEYRGYWPWQYAGGDYWGQGTQVTVSS	high polyreactivity
QVQLVESGGGLVQAGGSLRLSCAASGYTFRFNAMGWYRQAPGKERELVARISKSGGSTYYADSVKGRFTISRDNAKNTVYLQMNSLKPEDTAVYYCAAKDYVWGQGTQVTVSS	low polyreactivity
QVQLVESGGGLVQAGGSLRLSCAASGYTFRGYAMGWSRQAPGKERELVAAISWSGGRTYYADSVKGRFTISRDNAKYTVYLQMNSLKPEDTAVYYCAAPGQHSWGQGTQVTVSS	high polyreactivity

Sequence	polyreactivity (PSR sort gate)
QVQLVESGGGLVQAGGSLRLSCAASGYTFRSNVMGWYRQAPGKERELVAAISRGTRTKYADSVKGRFTISRDNAKNTVYLQMNSLKPEDTAVYYCAADTGTGLDWGQGTQVTVSS	high polyreactivity
QVQLVESGGGLVQAGGSLRLSCAASGYTFRSYLGWYRQAPGKEREFVADISTSVTNTYYADSVKGRFTISRDNAKNTVYLQMISLKPEDTAVYYCAAGVQSVYNGEPGIILDFDYWGQGTQVTVSS	low polyreactivity
QVQLVESGGGLVQAGGSLRLSCAASGYTFRTNVMGWYRQAPGTERELVATINWRGGSTYYADSVKGRFTISRDYAKNTVYLLINSLKPEDTAVYYCAADGLSNVRQMDYWGQGTQVTVSS	low polyreactivity
QVQLVESGGGLVQAGGSLRLSCAASGYTFRVYTMGWYRQAPGTERELVAAISRRGSRTYYADSVKGRFTISRDNAKNTVYLQMNSLKPEDTAVYYCAAGIPYPDDYWGQGSQVTVSS	high polyreactivity
QVQLVESGGGLVQAGGSLRLSCAASGYTFRYNAMGWYKQAPWKDRELVATITRGGSTNYADSVKGRFTISRDNAKNTVYLQMNSLKPEDTEVYYCNKEAAPLGFVPSYYGRDYWGQGTQVTVSS	low polyreactivity
QVQLVESGGGLVQAGGSLRLSCAASGYTFRYYAMGWYRQAPGKERELVAAISSSGGNTYYADSVKGRFTISRDNAKNTVYLQMNSLIPEDTAVYYCAARRYQYPGHSLGYYYTDYYWGQGTQVTVSS	low polyreactivity
QVQLVESGGGLVQAGGSLRLSCAASGYTFRYYAMGWYRQAPGKERELVARITGRAGSTYYADSVKGRFTISRDNAKNTVYLQMNSLKPEDTAVYYSAASIREGFYWGQGTQVTVSS	high polyreactivity
QVQLVESGGGLVQAGGSLRLSCAASGYTFRYYAMVWYRQAPGKEREMVAAINGGDITNYADSVKGRFTISRDNAKNTVYLQMNSLKPVDTAVYYCAADGEDSLWTCYDYDYWGQGTQVTVSS	low polyreactivity
QVQLVESGGGLVQAGGSLRLSCAASGYTFSFNAMGWYRQAPGKERELVAAINRGTSTNYADSVKGRFTISRDNAKNTVYLQMNSLKPEDTAVYYCAAGFRRSAGRYDLDYWGQGTQVTVSS	high polyreactivity
QVQLVESGGGLVQAGGSLRLSCAASGYTFSHYAMGWYRQAPGKERELVAGITWSGGSTYYADSVKGRFTISRDNAKNTVYLQMNSLKPEDTSVYYCAAKYYWYYSYSGIPLFDYWGHGTQVTVSS	low polyreactivity
QVQLVESGGGLVQAGGSLRLSCAASGYTFSHYAMGWYRQAPGKERELVAGITWSGGSTYYADSVKVRFTISRDNAKNTVYVQMNSLKPEDTSVYYCAAKYYWYYSYSGIPLFDYWGQGTQVTVSS	low polyreactivity
QVQLVESGGGLVQAGGSLRLSCAASGYTFSVNAMGWYRQAPGKESELVATITSSGGGTYYADSVKGRFTISRDNAKNTVYLQMNSLKPEDTAVYYCAADGYWYGDIYPSDYRWYDYWGQGTQVTVSS	low polyreactivity
QVQLVESGGGLVQAGGSLRLSCAASGYTFSVNVMGWYRQAPGKERELVAAISGRGGRTYYADSVKGRFTISRDNAKNTVYLQMNSLKPEDTAVYYCAAVRGKPGRISYPYDYWGQGTQVTVSS	high polyreactivity
QVQLVESGGGLVQAGGSLRLSCAASGYTFSWYAMGWYRQAPRKERELVAGIDTSGGSTYYADSVKGRFTISRDNAKNTVYLQMNSLKPEDTAVYYCAAGLLWYSWGFWYYEYGYWGQGTQVTVSS	low polyreactivity
QVQLVESGGGLVQAGGSLRLSCAASGYTFSYYAMGWYRQAPGKERELVAAISVRGDSTYYADSVKGRFTISRDYAKNTVYLLMNSLKPEDTAVYYCAARVVRSSYVRYHYWGQGTQVTVSS	high polyreactivity
QVQLVESGGGLVQAGGSLRLSCAASGYTFTIYAMGWSRQAPGKERESVASISIDGSTYYADSVKGRFTISRDNAKNTVYLQMNSLKPEDTAGYYCAADYYYYNPGFDYWGQGTQVTVSS	low polyreactivity
QVQLVESGGGLVQAGGSLRLSCAASGYTFTIYAMGWYRQAPGKERELVASISIDGSTYYADSVKGRFTISRDNAKNTVYLQMNSLKPEDTAVYYCAADYYYYTPGFDYWGQGTQVTVSS	low polyreactivity
QVQLVESGGGLVQAGGSLRLSCAASGYTFVDYAMGWYRQAPGKERELVAAISSSGARTYYAYSVKGRFTISRDNAKNSVYLQMNSLKAEDTAVYYCNTPRPYEITTPEYYYWGQGTQVTVSS	high polyreactivity
QVQLVESGGGLVQAGGSLRLSCAASGYTFVNYAMGWYRQAPGKEREFVAAISRSGGSTYYADSVKGRFTISRDNAKNTVYLQMNSLKPEDTAVYYCALRGYPPYNYYYWGQGTQVTVSS	high polyreactivity
QVQLVESGGGLVQAGGSLRLSCAASGYTFVRYAMGWYRQAPGKEREFVASISTSGGSTYYADSVKGRFTISRDNAKNTVYLQMNSLKPEDTAVYYCAAGHVVRRPYLIYDYWGQGTQVTVSS	high polyreactivity
QVQLVESGGGLVQAGGSLRLSCAASGYTFVVYAMGWYRPAPGKERELVAAINKSGGSTYYADSVKGRFTISRDNAKNTVYLQMNSLKPEDTAVYYCAAVVWILYSSSRGDYWGQGTQVTVSS	low polyreactivity
